Measurements from paper PMC3392929 (The Journal of Cell Biology, 2012).

Assays:
[1] = target: Purified β-actin (Cytoskeleton) (UniProt P60709 1-375); assay: SPR
[2] = target: Purified β-actin (Cytoskeleton) (UniProt P60709 1-375); assay: SPR; remark: listed apart in the source

B1: GST-tagged full-length Myo1c (natural protein)
chain: MALQVELIPTGEIIRVVHPHRPCKLALGSDGVRVTMESALTARDRVGVQDFVLLENFTSEAAFIENLRRRFRENLIYTYIGPVLVSVNPYRDLQIYSRQHMERYRGVSFYEVPPHLFAVADTVYRALRTERRDQAVMISGESGAGKTEATKRLLQFYAETCPAPERGGAVRDRLLQSNPVLEAFGNAKTLRNDNSSRFGKYMDVQFDFKGAPVGGHILSYLLEKSRVVHQNHGERNFHIFYQLLEGGEEETLRRLGLERNPQSYLYLVKGQCAKVSSINDKSDWKVVRKALTVIDFTEDEVEDLLSIVASVLHLGNTHFAADEESNAQVTTENQLKYLTRLLGVEGSTLREALTHRKIIAKGEELLSPLNLEQAAYARDALAKAVYSRTFTWLVAKINRSLASKDAESPSWRSTTVLGLLDIYGFEVFQHNSFEQFCINYCNEKLQQLFIELTLKSEQEEYEAEGIAWEPVQYFNNKIICDLVEEKFKGIISILDEECLRPGEATDLTFLEKLEDTIKQHPHFLTHKLADQRTRKSLDRGEFRLLHYAGEVTYNVTGFLDKNNDLLFRNLKETMCSSENPILGQCFDRSELSDKKRPETVATQFKMSLLELVEILKSKEPAYVRCIKPNDSKQPGRFDEVLIRHQVKYLGLMENLRVRRAGFAYRRKYEAFLQRYKSLCPETWPTWTGRPQDGVTVLVRHLGYKPEEYKMGRTKIFIRFPKTLFATEDALEIRRQSLATKIQATWRGFHCRQKFLRVKRSAICIQSWWRGTLGRRKAAKRKWAAQTIRRLIQGFILRHAPRCPENAFFVDHVRTSFLLNLRRQLPRNILDTSWPTPPPALREASELLRELCRKNMVWKYCRSISPEWKQQLQQKAVASEIFKGKKDNYPQSVPRLFISTRLGADEINPRVLQALGSEPIQYAVPVVKYDRKGYKPRSRQLLLTPNAVVIVEDAKVKQRIEYTNLTGISVSSLSDSLFVLHVQREDNKQKGDVVLQSDHVIETLTKTALSADRVNNININQGSITFAGGPGRDGIIDFTPGSELLITKAKNGHLAVVAPRLNSR
[1]
  Kd: ≤ 2000 nM

B2: GST-tagged Myo1c tail domain (domain or fragment)
chain: KDNYPQSVPRLFISTRLGADEINPRVLQALGSEPIQYAVPVVKYDRKGYKPRSRQLLLTPNAVVIVEDAKVKQRIEYTNLTGISVSSLSDSLFVLHVQREDNKQKGDVVLQSDHVIETLTKTALSADRVNNININQGSITFAGGPGRDGIIDFTPGSELLITKAKNGHLAVVAPRLNSR
[2]
  Kd: ≤ 2000 nM
